Results on three molecules are retold here after PMC10267678 (2023).

Assay [1] deals with T1, full-length human TNC protein (human, UniProt P24821 23-2201). Put plainly: BLI. Background: BLI is a label-free optical method that tracks binding on a fibre tip over time.
Assay [2] addresses T1, full-length human TNC protein. Description: BLI. This is another data set of the same source.

T1 sequence (P24821 23-2201): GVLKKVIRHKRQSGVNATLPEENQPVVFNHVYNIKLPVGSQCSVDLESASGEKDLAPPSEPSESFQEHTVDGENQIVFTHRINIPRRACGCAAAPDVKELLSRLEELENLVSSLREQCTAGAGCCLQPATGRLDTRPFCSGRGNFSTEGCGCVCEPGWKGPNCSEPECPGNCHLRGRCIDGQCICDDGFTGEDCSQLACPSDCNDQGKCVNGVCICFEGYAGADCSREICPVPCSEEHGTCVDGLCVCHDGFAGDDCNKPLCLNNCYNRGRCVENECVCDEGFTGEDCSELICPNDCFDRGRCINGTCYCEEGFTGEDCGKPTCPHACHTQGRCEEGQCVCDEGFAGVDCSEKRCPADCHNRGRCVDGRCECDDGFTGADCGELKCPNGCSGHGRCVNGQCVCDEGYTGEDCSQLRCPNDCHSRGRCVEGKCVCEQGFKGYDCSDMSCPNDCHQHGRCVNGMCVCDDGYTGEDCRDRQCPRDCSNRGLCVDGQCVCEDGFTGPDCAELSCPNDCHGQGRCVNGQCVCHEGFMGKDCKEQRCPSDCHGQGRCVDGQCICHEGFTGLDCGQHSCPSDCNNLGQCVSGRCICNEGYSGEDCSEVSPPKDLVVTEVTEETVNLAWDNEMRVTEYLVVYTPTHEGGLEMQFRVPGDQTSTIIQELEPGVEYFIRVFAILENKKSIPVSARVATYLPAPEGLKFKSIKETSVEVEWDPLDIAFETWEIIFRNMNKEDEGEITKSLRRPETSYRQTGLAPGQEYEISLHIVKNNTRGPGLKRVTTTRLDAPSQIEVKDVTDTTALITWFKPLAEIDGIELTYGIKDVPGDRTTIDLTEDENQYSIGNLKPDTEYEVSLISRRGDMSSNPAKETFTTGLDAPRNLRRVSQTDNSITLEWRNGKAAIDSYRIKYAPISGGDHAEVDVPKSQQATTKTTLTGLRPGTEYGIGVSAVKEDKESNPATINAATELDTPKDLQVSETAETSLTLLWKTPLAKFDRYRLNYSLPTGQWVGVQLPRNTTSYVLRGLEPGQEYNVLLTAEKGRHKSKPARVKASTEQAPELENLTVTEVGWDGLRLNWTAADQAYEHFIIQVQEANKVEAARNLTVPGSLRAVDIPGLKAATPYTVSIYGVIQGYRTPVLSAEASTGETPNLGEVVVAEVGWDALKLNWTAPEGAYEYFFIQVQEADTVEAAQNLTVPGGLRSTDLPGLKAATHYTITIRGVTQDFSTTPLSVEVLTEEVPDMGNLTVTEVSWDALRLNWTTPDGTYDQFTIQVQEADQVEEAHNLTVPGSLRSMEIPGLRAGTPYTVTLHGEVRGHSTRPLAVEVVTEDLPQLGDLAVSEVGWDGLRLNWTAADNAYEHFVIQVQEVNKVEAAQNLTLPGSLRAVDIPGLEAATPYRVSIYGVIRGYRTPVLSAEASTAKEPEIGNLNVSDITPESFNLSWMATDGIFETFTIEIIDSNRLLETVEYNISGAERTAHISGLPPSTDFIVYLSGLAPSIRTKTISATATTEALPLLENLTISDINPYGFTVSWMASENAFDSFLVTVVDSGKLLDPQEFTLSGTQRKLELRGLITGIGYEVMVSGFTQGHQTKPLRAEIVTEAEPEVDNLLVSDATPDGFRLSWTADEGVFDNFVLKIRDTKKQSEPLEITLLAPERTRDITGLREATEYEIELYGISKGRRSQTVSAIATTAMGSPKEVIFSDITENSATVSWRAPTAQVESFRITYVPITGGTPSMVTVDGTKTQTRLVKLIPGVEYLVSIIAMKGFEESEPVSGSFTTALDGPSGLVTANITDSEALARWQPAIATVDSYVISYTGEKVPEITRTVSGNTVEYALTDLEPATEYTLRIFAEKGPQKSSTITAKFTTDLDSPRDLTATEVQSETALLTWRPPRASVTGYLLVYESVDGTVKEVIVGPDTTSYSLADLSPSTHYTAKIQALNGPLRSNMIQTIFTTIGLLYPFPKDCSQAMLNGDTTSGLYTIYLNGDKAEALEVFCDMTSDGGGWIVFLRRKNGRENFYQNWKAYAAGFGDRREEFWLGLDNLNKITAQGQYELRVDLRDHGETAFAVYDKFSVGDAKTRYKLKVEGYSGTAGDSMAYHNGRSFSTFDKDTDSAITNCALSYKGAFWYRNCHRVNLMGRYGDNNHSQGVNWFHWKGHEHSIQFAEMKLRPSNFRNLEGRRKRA

B1: NJT6 (VHH)
VHH: QVQLVETGGDLVQPGGSLRLSCAASGLTLDYYAIGWVRQAPGKEREGVSCITPQDGNTYYDDSVMGRFTILRDNAKNMVYLQMNNLKPEDTAVYFCAAAGALTLDPSEYEYWGQGTQVTVSS
modifications: biotin (BLI, IHC) or Alexa-647 (two-photon imaging) added at the C-terminus by sortase-mediated tagging
As to B1, the koff (commonly a measure of how fast the partners let go of each other) in assay [1] is less than 1e-07 s⁻¹. Besides, the dissociation constant (Kd) (usually the equilibrium constant for the complex coming apart) in assay [2] is less than 1 pM.

B2: NJT3 (VHH)
VHH: QVQLVETGGGLAQAGGSLRLSCAASGRTLSGYAMGWFRQAPGKEREFVAAISWSGRNTYYDYTVQGRFTISKDNAKNTVNLQMNSLKPEDTAVYYCAVSRSLDEFGDGYEMDYWGDGTQVTVSS
modifications: biotin (BLI, IHC) or Alexa-647 (two-photon imaging) added at the C-terminus by sortase-mediated tagging
Consider B2, for which the koff in assay [1] is 2.35e-07 s⁻¹. Also, in assay [2], binding was put at a Kd of 1.47 pM.

B3: NJT4 (VHH)
VHH: QVQLVESGGGLVQPGGSLRLSCAASGFTFSSYTMRWYRQAPGKERELVAFIGVAGGSTKYADSVKGRFTISRDNTKNTVYLQMNTLKPEDTAVYYCYAPLTPYWGQGTQVTVSS
modifications: biotin (BLI, IHC) or Alexa-647 (two-photon imaging) added at the C-terminus by sortase-mediated tagging
As to B3, in assay [1], the koff is less than 1e-07 s⁻¹. Further, the Kd in assay [2] is less than 1 pM.
